Bounds are passed on as bounds.

The record followed here is patent publication US20160046725A1.

Assay [1] addresses human Axl receptor on human tumor cells (UniProt P30530). Kind of assay: flow cytometry on SN12C cells treated 24 h with 9G4, labelled with 9G4 isotype control.
The target is the same in assay [2]. The experiment in a line: cell-based or functional assay.
The target is the same in assay [3]. Kind of assay: flow cytometry on SN12C cells, untreated (No Ab), labelled with 9G4 isotype control.
Assay [4] has the same target. The experiment in a line: quantitative flow cytometry (Qifikit) on Calu-1 cells.
Assay [5] shares this target. Kind of assay: quantitative flow cytometry (Qifikit) on Panc1 cells.
The target is the same in assay [6]. The experiment in a line: quantitative flow cytometry (Qifikit) on MCF7 cells. A general note: In flow cytometry, cells or beads pass a laser one at a time.
For assay [7] the target is unchanged. Kind of assay: quantitative flow cytometry (Qifikit) on A431 cells.
Assay [8] has the same target. The experiment in a line: quantitative flow cytometry (Qifikit) on NCI-H125 cells.
Assay [9] shares this target. The experiment in a line: quantitative flow cytometry (Qifikit) on DU-145 cells.
For assay [10] the target is unchanged. Kind of assay: quantitative flow cytometry (Qifikit) on PC3 cells.
For assay [11] the target is unchanged. Kind of assay: quantitative flow cytometry (Qifikit) on MDA-MB-231 cells.
Assay [12] shares this target. The experiment in a line: flow cytometry on SN12C cells, untreated (No Ab), labelled with MAB154.
Assay [13] has the same target. The experiment in a line: quantitative flow cytometry (Qifikit) on SN12C cells.
For assay [14] the target is unchanged. The experiment in a line: quantitative flow cytometry (Qifikit) on NCI-H226 cells.
For assay [15] the target is unchanged. The experiment in a line: quantitative flow cytometry (Qifikit) on A172 cells.
The target is the same in assay [16]. Kind of assay: quantitative flow cytometry (Qifikit) on MDA-MB-435S cells.

Sequence of human Axl receptor on human tumor cells (P30530 26-894 D266N): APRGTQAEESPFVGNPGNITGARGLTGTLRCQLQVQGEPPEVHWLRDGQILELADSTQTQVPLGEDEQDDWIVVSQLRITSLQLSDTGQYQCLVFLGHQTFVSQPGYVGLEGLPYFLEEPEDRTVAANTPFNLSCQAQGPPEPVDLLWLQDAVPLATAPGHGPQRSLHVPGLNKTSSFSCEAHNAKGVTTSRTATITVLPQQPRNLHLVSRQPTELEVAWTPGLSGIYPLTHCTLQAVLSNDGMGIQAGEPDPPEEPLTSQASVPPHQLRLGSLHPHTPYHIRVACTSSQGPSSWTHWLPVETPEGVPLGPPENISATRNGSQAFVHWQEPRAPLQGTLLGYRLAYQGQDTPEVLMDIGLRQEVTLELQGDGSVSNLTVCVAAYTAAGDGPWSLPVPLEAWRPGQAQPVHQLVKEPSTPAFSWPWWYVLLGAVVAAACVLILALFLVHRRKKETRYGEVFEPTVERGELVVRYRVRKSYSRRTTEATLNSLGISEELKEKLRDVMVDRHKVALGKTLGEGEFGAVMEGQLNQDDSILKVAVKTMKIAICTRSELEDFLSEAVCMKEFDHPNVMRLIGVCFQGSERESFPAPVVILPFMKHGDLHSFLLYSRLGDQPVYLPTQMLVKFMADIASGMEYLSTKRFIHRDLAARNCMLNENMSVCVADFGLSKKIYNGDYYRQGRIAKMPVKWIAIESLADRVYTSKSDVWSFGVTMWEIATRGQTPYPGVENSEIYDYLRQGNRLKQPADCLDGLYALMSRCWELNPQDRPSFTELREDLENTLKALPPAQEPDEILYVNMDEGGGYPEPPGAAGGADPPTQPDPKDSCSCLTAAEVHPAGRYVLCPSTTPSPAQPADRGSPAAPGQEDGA

Consider “9G4 murine IgG1 isotype control antibody”, for which the MFI at T24 h in [1] was 13 MFI; in assay [3], 11 MFI. In addition, the % remaining Axl in assay [2] came out at 117%. In addition, in assay [2], the Δ (MFI No Ab 24 h - MFI Ab 24 h) is -2 MFI.
As to “MAB154 anti-Axl commercial antibody (R and D Systems)”, the ABC (Qifikit) in assay [4] is > 100000 ABC; in [5] it was 36800 ABC; in assay [6] it was 71 ABC; in assay [7], 3950 ABC; in assay [8] it was 5540 ABC; in [9], 55300 ABC. Also, the ABC (Qifikit) was 8420 ABC in assay [10]; 61200 ABC in assay [11]; > 100000 ABC in assay [13]; 32100 ABC in [14]; 52400 ABC in [15]; 17800 ABC in assay [16]. The MFI at T24 h in assay [12] amounted to 950 MFI. Moreover, in assay [13], the Antigen binding capacity (Qifikit) was > 100000 ABC.
